In paper PMC4201348 (ACS Chemical Biology, 2014):

Target: soluble, recombinant SUDV GP (Boniface variant), residues 33-649 (Sudan ebolavirus (Boniface variant), UniProt Q66814)

Binder	binding result
31C7 (antibody, V domains shown) VH: EVQLVESGGGLVQPGGSLRLSCAASGFAFNYYDMFWVRQAPGKGLEWVAYINPGGGNTYYADSVKGRFTISADTSKNTAYLQMNSLRAEDTAVYYCARQLYGNSFLDYWGQGTLVTV VL: DIQMTQSPSSLSASVGDRVTITCKASQDVTTAVAWYQQKPGKAPKLLIYWASSRYPGVPSRFSGSGSGTDFTLTISSLQPEDFATYYCQQHYSTPLTFGQGTKVEI	binds
34F5 (antibody, V domains shown) VH: EVQLVESGGGLVQPGGSLRLSCAASGFAFNYYDMFWVRQAPGKGLEWVAYINSGGGNTYYPDSVKGRFTISADTSKNTAYLQMNSLRAEDTAVYYCARQLYGNSFFDYWGQGTLVTV VL: DIQMTQSPSSLSASVGDRVTITCKASQDVTTAVAWYQQKPGKAPKLLIYWASARHRGVPSRFSGSGSGTDFTLTISSLQPEDFATYYCQQHYSTPLTFGQGTKVEI	binds
35B5 (antibody, V domains shown) VH: EVQLVESGGGLVQPGGSLRLSCAASGFAFNYYDMFWVRQAPGKGLEWVAYINSGGGNTYYPDSVKGRFTISADTSKNTAYLQMNSLRAEDTAVYYCARQLYGNSFFDYWGQGTLVTV VL: DIQMTQSPSSLSASVGDRVTITCKASQDVTTAVAWYQQKPGKAPKLLIYWASTRHTGVPSRFSGSGSGTDFTLTISSLQPEDFATYYCQQHYSTPLTFGQGTKVEI	binds
51B6 (antibody, V domains shown) VH: EVQLVESGGGLVQPGGSLRLSCAASGFAFNYYDLYWVRQAPGKGLEWVAYINPGGGNTYYPDSVKGRFTISADTSKNTAYLQMNSLRAEDTAVYYCARQLYGNSFFDYWGQGTLVTV VL: DIQMTQSPSSLSASVGDRVTITCKASQDVTTAVAWYQQKPGKAPKLLIYWASTRHTGVPSRFSGSGSGTDFTLTISSLQPEDFATYYCQQHYSTPLTFGQGTKVEI	binds
